Target: the molecule itself
Assay: non-reducing PAGE; purified NS6 proteases analysed by non-reducing PAGE; major band at approximately 18 kDa, minor band at approximately 36 kDa taken as the dimer

B1: wild-type Southampton virus NS6 protease (enzyme)
chain: APPTLWSRVTKFGSGWGFWVSPTVFITTTHVIPTSAKEFFGEPLTSIAIHRAGEFTLFRFSKKIRPDLTGMILEEGCPEGTVCSVLIKRDSGELLPLAVRMGAIASMRIQGRLVHGQSGMLLTGANAKGMDLGTIPGDCGAPYVYKRANDWVVCGVHAAATKSGNTVVCAVQASEGETTLE
notes: NS6 protease (3C-like protease), cut product of the ORF1 polyprotein of Southampton virus (human norovirus); also called wtSV NS6; SV NS6
Question: Does B1 bind?
Answer: Result: binds

B2: wild-type murine norovirus NS6 protease (enzyme)
chain: APVSIWSRVVQFGTGWGFWVSGHVFITAKHVAPPKGTEIFGRKPGDFTVTSSGDFLKYYFTSAVRPDIPAMVLENGCQEGVVASVLVKRASGEMLALAVRMGSQAAIKIGSAVVHGQTGMLLTGSNAKAQDLGTIPGDCGCPYVYKKGNTWVVIGVHVAATRSGNTVIAATHGEPTLEALEFQ
notes: NS6 protease (3C-like protease), cut product of the ORF1 polyprotein of murine norovirus 1; expressed flanked by 41 residues of NS5 and 41 residues of NS7 and released by self-cleavage as the 19 kDa mature NS6; its strain may differ at a few residues from the UniProt entry; The tags sit upstream of the NS5 stretch and leave with it on self-excision; also called wtMNV NS6; MNV NS6; not shown: His …
Question: Does B2 bind?
Answer: Result: binds
